In this assay the target is clathrin (triskelia purified from pig brain clathrin-coated vesicles) (pig). Description: cryo-EM structure; clathrin cages assembled with a 60-fold molar excess of β2HA; single particle analysis of minicoat cages, signal subtraction, masked 3D classification and localized reconstruction; compared with clathrin-only minicoat cages.

Take “β2-adaptin 616-951, hinge and appendage of the human β2 subunit of the AP2 complex (β2HA) (from UniProt P63010-2 616-951) (domain or fragment)”: the stoichiometry N (β2HA per terminal domain) is 0.5.

(Values after PMC8488560.)
